In article PMC5399559 (2017):

Key:
[1] = biological target: taxol-stabilized microtubules (MTs); experiment: 100 mM KCl
[2] = biological target: taxol-stabilized microtubules (MTs); experiment: 200 mM KCl
[3] = biological target: taxol-stabilized microtubules (MTs); experiment: 30 mM KCl

Sequence of taxol-stabilized microtubules (MTs) (chain, as listed by the source, chain 1 of 2): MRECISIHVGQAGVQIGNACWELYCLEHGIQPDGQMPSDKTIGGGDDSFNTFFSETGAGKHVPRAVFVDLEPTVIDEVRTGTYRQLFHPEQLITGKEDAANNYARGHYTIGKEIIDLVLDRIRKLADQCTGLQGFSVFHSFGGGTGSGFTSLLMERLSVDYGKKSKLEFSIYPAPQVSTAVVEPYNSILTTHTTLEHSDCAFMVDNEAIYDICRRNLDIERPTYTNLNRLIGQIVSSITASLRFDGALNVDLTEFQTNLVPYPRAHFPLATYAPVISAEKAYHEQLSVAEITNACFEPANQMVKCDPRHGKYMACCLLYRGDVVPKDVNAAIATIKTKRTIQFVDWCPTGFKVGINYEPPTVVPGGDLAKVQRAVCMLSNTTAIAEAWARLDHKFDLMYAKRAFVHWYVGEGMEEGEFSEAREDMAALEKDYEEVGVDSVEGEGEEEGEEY
Sequence of taxol-stabilized microtubules (MTs) (chain, as listed by the source, chain 2 of 2): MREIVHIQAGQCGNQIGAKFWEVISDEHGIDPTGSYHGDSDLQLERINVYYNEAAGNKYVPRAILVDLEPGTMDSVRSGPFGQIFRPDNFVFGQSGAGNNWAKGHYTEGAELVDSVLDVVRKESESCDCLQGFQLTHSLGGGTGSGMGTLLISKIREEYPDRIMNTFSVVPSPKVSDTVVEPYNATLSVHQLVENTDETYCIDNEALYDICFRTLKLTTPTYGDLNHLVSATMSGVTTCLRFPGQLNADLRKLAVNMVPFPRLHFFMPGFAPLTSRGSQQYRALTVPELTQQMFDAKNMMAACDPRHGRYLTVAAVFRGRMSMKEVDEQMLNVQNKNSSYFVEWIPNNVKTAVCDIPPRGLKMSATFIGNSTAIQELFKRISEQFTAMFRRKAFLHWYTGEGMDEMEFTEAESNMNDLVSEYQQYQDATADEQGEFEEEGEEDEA

B1: MBP-Kif18A^tail-His6 (tail of Xl_Kif18A, aa 846-953) (domain or fragment)
chain: PSYMAMTSAAERKRKLLSLAGNSAVKEDSVPLPTAKRVRQDIALDCKALRVQRVAAGTTRSKDNCARRRLPKSVSEGALGVKTKPFSFQGSAQLLFQGGKKKAALKDP
Kd [1]: 770 nM
Kd [2]: 3010 nM
Kd [3]: 340 nM
